Literature values as cited in patent US9914774B2, “Notch pathway inhibition” (Genentech, Inc., priority 2014, dated 2018).
Like-named read-outs stand apart in the source and are kept apart here.

B1: 52M51: anti-Notch1 antibody 52M51, described in U.S. Pat. No. 8,435,513 (antibody, chains of the INN, looked up, V domains shown)
VH: QVQLVQSGAEVKKPGASVKISCKVSGYTLRGYWIEWVRQAPGKGLEWIGQILPGTGRTNYNEKFKGRVTMTADTSTDTAYMELSSLRSEDTAVYYCARFDGNYGYYAMDYWGQGTTVTVSS
VL: QAVVTQEPSLTVSPGGTVTLTCRSSTGAVTTSNYANWFQQKPGQAPRTLIGGTNNRAPGVPARFSGSLLGGKAALTLSGAQPEDEAEYYCALWYSNHWVFGGGTKLTVL

How the values were obtained:
[1] = Phase 1a, patients with solid tumors
[2] = first-in-human phase I, advanced solid tumors

Molecule | patients experienced diarrhea [1] | patients experiencing grade 3 or higher diarrhea [1] | patients experienced diarrhea [2]
59R5: anti-Notch antibody 59R5, described in U.S. Pat. No. 7,919,092 | 58% | 14% | –
B1 | – | – | 64%
